Measured values reported in patent US7897568B2, “Compositions for treatment of cancer” (priority 2006, dated 2011).
Where no end group is shown, it is not given here.

Experiments:
GST-SNCG = molecular target: T1, GST-SNCG (Homo sapiens, UniProt O76070); experiment: GST pull-down of EGFP-ANK with GST-SNCG; assay type: binding; conditions: FIG. 5D, GST as control
T1 construct: The SNCG coding region was amplified from the human cDNA clone; made in house; host or cells: Escherichia coli BL21 (DE3)
From the text: (§1) FIGS. 5A through 5D show co-localization, co-immunoprecipitation (co-IP) and GST pull down experiments, using an enhance green fluorescent protein (EGFP)-ANK fusion protein, which confirm that SNCG associates with the ANK peptide in vivo. FIG. 5A is a western blot depicting detection of EGFP-ANK expression in COS7 cells. Lanes 2 and 3 were samples transfected with different clones, cl-4 and cl-8, respectively, of pEGFP-ANK plasmid. In FIG. 5B, MCF7-SNCG cells were transfected with pEGFP-ANK, fixed on a cover slip, permeabilized and probed with anti-SNCG and anti-GFP antibodies to observe co-localization. Fluorescent cells were visualized using an ×100 objective (oil) on an inverted confocal microscope (Leica). FIGS. 5C and 5D are western blots showing association of SNCG and ANK peptide as evidenced by co-IP of SNCG with EGFP-ANK in MCF7-SNCG and MCF7-neo cells. In these experiments, MCF7-SNCG and MCF7-neo cells were transfected with pEGFP-ANK or pEGFP plasmids. […]
GST-SNCG (20 μg) protein or GST alone was added to a pre-equilibrated slurry of glutathione-sepharose 4B and incubated for 60 minutes. […] After extensive washes, the beads were collected, boiled in sample buffer, separated on 12% SDS gel and analyzed by western blotting. […]

MCF7-SNCG and T47D cells = experiment: Mitotic index by anti-phospho-H3 immunostaining (microscopy) after paclitaxel; assay type: cell-based; conditions: over-expressing EGFP-ANK in MCF7-SNCG and T47D cells
Experimental: FIG. 7A through D show expression of EGFP-ANK disrupting the SNCG-mediated inhibition of mitotic checkpoint function as measured by microscopy and flow cytometry. The bar graphs show the expression of EGFP-ANK disrupting the SNCG-mediated inhibition of mitotic checkpoint function, using (FIG. 7A) DAPI and (FIG. 7B) anti-phospho-H^3 staining. For graphs of FIGS. 7A and 7B, the cells treated with 0.5 μM paclitaxel for 18 hours or untreated control cells were fixed with 4% paraformaldehyde for 20 minutes at room temperature. In both cases, the cells were then stained with 1 μg/ml of DAPI or 2 μg/ml anti-phospho-H3 primary and Texas Red goat anti-rabbit secondary antibodies (Invitrogen). Green fluorescent cells were identified for positive transfected cells. For each sample, 200-300 cells randomly chosen from 5 different views under a Nikon fluorescent microscope were scored for interphase, mitotic, or apoptotic based upon nuclei morphology. The data shown were derived from three separate transfections (p<0.01). […]
Two days after transfection, cells were exposed to paclitaxel for 18 hours and numbers of mitotic arrested and apoptotic cells were counted after DAPI staining. […] These cells were also probed with rabbit polyclonal anti-phospho-H^3 and the mitotic index was calculated according to the proportion of the number of H^3 stained EGFP positive cells to total EGFP positive cells (FIG. 7B). […]

SNCG = SNCG (Homo sapiens, UniProt O76070); experiment: Co-localization of EGFP-ANK with SNCG by confocal microscopy; assay type: cell-based; set-up: expressed in transfected cells; host or cells: MCF7-SNCG (MCF7 stably expressing SNCG); conditions: green fluorescent signals in transfected cells
From the text: as §1
To further examine the utility of the ANK peptide as a therapeutic tool against SNCG-caused drug resistance, this peptide was expressed in breast cancer cells. ANK peptide nucleotide sequences were cloned into pEGFP-C2 vector (pEGFP-ANK), and ANK peptide was expressed as a fusion protein with its amino-terminal linked to EGFP protein. […]

Sequence of SNCG (O76070 whole entry): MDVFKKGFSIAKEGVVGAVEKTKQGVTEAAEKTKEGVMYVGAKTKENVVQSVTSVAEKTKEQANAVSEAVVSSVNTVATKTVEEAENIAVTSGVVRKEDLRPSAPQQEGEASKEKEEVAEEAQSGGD
T1 sequence (O76070 whole entry): as above

With “EGFP-ANK: ANK peptide expressed as a fusion protein with its amino-terminal linked to EGFP protein, approximately 37 kDa ({EGFP}-KGNSALHVASQHGHLGCIQTLVRYGANVTMQNHG)” the “pull down by GST-SNCG” value (GST-SNCG) was “SNCG is capable of immunoprecipitating EGFP-ANK”, the “sensitivity to paclitaxel by anti-phospho-H3 mitotic index” value (MCF7-SNCG and T47D cells) was “increases in sensitivity to paclitaxel” and the “intracellular localization relative to SNCG” value (SNCG) was “co-localized with SNCG in the cytoplasm”.
